In publication PMC8809517, “Cofactor-independent RNA editing by a synthetic S-type PPR protein”:
Residue numbers refer to the chain shown, from its start.

T1: GFP-9S library array, motif 4 ND N98P;D124W (synthetic construct, N98P;D124W)
T1 chain: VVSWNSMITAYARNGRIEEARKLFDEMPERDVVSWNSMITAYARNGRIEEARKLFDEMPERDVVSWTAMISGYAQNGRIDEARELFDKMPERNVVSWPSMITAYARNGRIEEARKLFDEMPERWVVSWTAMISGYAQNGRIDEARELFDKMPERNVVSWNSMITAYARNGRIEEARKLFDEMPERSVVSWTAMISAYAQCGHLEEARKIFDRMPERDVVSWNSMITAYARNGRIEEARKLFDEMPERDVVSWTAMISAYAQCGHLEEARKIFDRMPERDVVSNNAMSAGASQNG

T2: GFP-9S library array, motif 4 ND N98Y;D124P (synthetic construct, N98Y;D124P)
T2 chain: T1 chain with P98Y, W124P

T3: GFP-9S library array, motif 4 ND N98A;D124L (synthetic construct, N98A;D124L)
T3 chain: T1 chain with P98A, W124L

T4: GFP-9S library array, motif 4 ND N98Y;D124M (synthetic construct, N98Y;D124M)
T4 chain: T1 chain with P98Y, W124M

T5: GFP-9S library array, motif 4 ND N98F;D124F (synthetic construct, N98F;D124F)
T5 chain: T1 chain with P98F, W124F


Experiments:
Assay in all cases: high-throughput RNA pulldown from lysate on Ni-NTA beads; HRP: 50 mM Tris pH 8, 150 mM NaCl, 1 mM beta-mercaptoethanol, 50 ug/ml BSA, 3 ug/ml yeast RNA, 0.5% heparin; ITC and FP: Tris pH 8, 200 mM KCl, 5% glycerol; MST: 50 mM Tris pH 8, 200 mM NaCl, 1 mM DTT, BSA, heparin, 0.05% Tween 20
Settings in all cases: tags: N-terminal His-eGFP
[1] = target: T1, GFP-9S library array, motif 4 ND …
[2] = target: T2, GFP-9S library array, motif 4 ND …
[3] = target: T3, GFP-9S library array, motif 4 ND …
[4] = target: T4, GFP-9S library array, motif 4 ND …
[5] = target: T5, GFP-9S library array, motif 4 ND …

Row | Binder | Kd ([1]; label: 5' Cy5) [nM] | Kd ([2]; label: 5' Cy5) [nM] | Kd ([3]; label: 5' Cy5) [nM] | Kd ([4]; label: 5' Cy5) [nM] | Kd ([5]; label: 5' Cy5) [nM] | Kd ([1]; label: 5' IRDye 800CW) [nM] | Kd ([2]; label: 5' IRDye 800CW) [nM] | Kd ([3]; label: 5' IRDye 800CW) [nM] | Kd ([4]; label: 5' IRDye 800CW) [nM] | Kd ([5]; label: 5' IRDye 800CW) [nM]
1 | AUUAGACGUGA (ssRNA) [Cy5-rpoA-G] | 77.7 | 110 | 134 | 36.2 | 92.1 | – | – | – | – | –
2 | AUUACACGUGA (ssRNA) [Cy5-rpoA] | 69.3 | 106 | 129 | 40.8 | 76.4 | – | – | – | – | –
3 | AUUAAACGUGA (ssRNA) [IR-rpoA-A] | – | – | – | – | – | 44.6 | 219 | 272 | 124 | 200
4 | AUUAUACGUGA (ssRNA) [IR-rpoA-U] | – | – | – | – | – | 81.9 | 160 | 255 | 154 | 140
